In the DeepSol protein solubility set:

assay: soluble on expression in E. coli; label from the status in PepcDB or PDB records

Sequence | soluble on expression in E. coli
MVRAPIDGIVANRSAHTGSWVEGGTSLVSLVPVSELWVDANYKENQIAGMKPGMKAEIRADILKGEVFHGHIESLSPATGASFSLIPIENATGNFTKIVQRVPVRIAFDDAKELKQLLRPGLSVTVSVDER | not soluble
MGSDKIHHHHHHTVQNAQLSQQHAPCVDNKWPKSRLLSLAGSQFEMTDADRNDMVMRLISCLADTDPELRDAVAFSGLSHWLRANDLTNETVKSLYTKLSGDVRKRKDDPNGVYLPFAILTLSEVARVDRVSPFFEPAERDALSKLAADTMAGIQDYRGFDETIGWRHQVAHSADLLLQLVLNPALSSDDIMELVTSIQHQLSPAGHFYVYGEPERLARPVLYAMLRDDIPDSFWHSQLARWSTPVHIEGWDKAFSSNAGLAERHNRRAFFSALLLGISGSKQPRLLALQPAIQAAMKKLP | not soluble
MSLQVKHLLLIAILALTAACSSNKETVDENLSESQLYQQAQDDLNNKSYNSAVTKLKALESRYPFGRYAEQAQLELIYANYKNMEPEAARAAAERFIRLHPQHPNVDYAYYLKGLSSFDQDRGLLARFLPLDMTKRDPGAARDSFNEFAQLTSRFPNSRYAPDAKARMVYLRNLLAAYEVHVGHYYLKRQAYVAAANRGRYVVENFQETPAVGDGLAIMVEAYRRLGLDDLASTSLETLKLNYPDNASLKDGEFVARESEADTRSWLAKATLGLIEGGEPPPHMETQAAKDVIKQYEDAEREIPAELKPENQDHSADDEKPESDDDEDSGRSWWSYMTFGLFDEGGSHHHHHH | soluble
MLRPPMTKLVISNRESHRECEQVLQIGECAIVRSSSGEPWQLLNNGNSDSIDYALLQDILYEGYRLSTIYNIKSHTKSMKRLRRKLASIFSNSNFLLPLSKDGSSSSSQPHFYLSPSNSSLFDARKSSRSRGAVIKSPSTINIEKNRHSSNSGENQKMRLNLSMSTGNLCRAGVVRTPYPTSKQLHFDNDDGDEEDDTDDEGEADLVSIKTRSGRRNVLKSPPPPERIPSSMGASDAEEIDIKSHMKPLSVKIPANIFKTPTLDIPVDDDAEIDADVFPLPPPTPVNLKHGLFSIPSGRNSESARSRQTKRSPFGSVTSRTSSLDRRMSLSCLEDTSNYQKTQYLVFPLRTSSKKPYLLKFPEDMQEEDEKHNGSVWGSDTSLEEEIKV | not soluble
AESGFRQHITANGESGFKAEPDRYHLYLSYACPWACRTLIMRKLKGLEKIISVSFSDPVMGKNGWSYGESGNETADHINHIHYLKELYLVARKDYTGRVTVPVLWDKKKKTIVNNESSEIMRMLNSEFNAFSSTDHDYYPKQWRQKIDEINQLVYENINN | not soluble
MGSDKIHHHHHHMISVCIATYNGEKYLAEQLDSILLQVSEEDELIISDDGSTDHTLEILRTYAANYPQIQLLQGPGQGVIANFAFALTHTKGEVIFLADQDDVWLPNKVTTVTEYFETHPDIQVVISDLKIVDADLQVTNPSYFKFRKVKPGFWRNAIKSGYIGAGMAFRQEMKNVILPIPPEVPMHDMWIGLLAARKKQTGLIKEPLVLYRRHGANVSPIITKTSFQQKLNWRVNLLKALHQRLKEQR | not soluble
MEKLHQCYWKSGEPQSDDIEASRMKRAAAKHLIERYYHQLTEGCGNEACTNEFCASCPTFLRMDNNAAAIKALELYKINAKLCDPHPSKKGASSAYLENSKGAPNNSCSEIKMNKKGARIDFKDVTYLTEEKVYEILELCREREDYSPLIRVIGRVFSSAEAL | soluble
MLRRRTFLSWSSGKDSAWALHVLRQDPHVDVIGLFCTVNKVFDRVVMHGVRVALLQQQAESAGLPLHIIEIPYPCSNDEYASAMSAFVDSARKENIECFAFGDLLLEDVRQYREDRLNGTGITPIFPLWGIPTKTLSREMVAGGLKAVITCIDPKRIPESFAGREYNESFLDDIPGSVDPCGEYGEFHTFSFDGPMFQNPIDVVLGETVHRDGFVFTDLLSLTSSTEPTH | not soluble
MDNKTYEISSAEWEVMNIIWMKKYASANNIIEEIQMQKDWSPKTIRTLITRLYKKGFIDRKKDNKIFQYYSLVEESDIKYKTSKNFINKVYKGGFNSLVLNFVEKEDLSQDEIEELRNILNKK | soluble
MPDEATKGSATIPPSSSTPFWWREKRSPKVQYHRSAYPRSRSSDADCRQGNEGMNFIAKHFFEYQSFMNIPHKAVHLHKVPASQAGTDPSMGWAPKNMLKAGKHQPAPGARANRVHRDPRPNGTKYGRAGKHEHREWGDRHGELRDEKVACHKDAWTKFLANDDQGARTAFECDFEDRVLATEEETLQEKLCRTSPEAMNLNALYAAANKAVSCGGDVCELLTILTYAPTVQFVTTTVKKAKALPYNNAPFARIMLFEGRRLMEQKQTTVNPSLVHKSSVDGSKPSSSSASTSSNDNPSDVSFSESFLFHVPPTKLDRSHIVIELYDHDDEGGLQKIGHCVIGRLVDGTGNAHWIQMVRQHGLPVCMWHKIGHN | not soluble
MSLRASGSGANPDKTWESRSLPIGNGSLGANILGSVAAERITLNEKTLWKGGPNTSKGAEYYWDVNKQSAGVLKEIRQAFLDEDKEKAAQLTRNNFNGLAAYEEKDETPFRFGSFTTMGELYVETGLNELRMSNYRRILSLDSAMVVVQFDKDGVQYQRKYFISYPDSVMVMKFTANQSGKQNLILSYCPNSEAKSNLRADGKDGLVYTGVLDNNGMKFAFRIKAIHKGGTLEAENDRLIVKGADEVVFLLTADTDYKMNFNPDFKDPKTYVGNDPEQTTRIMMDQAVQKGYDELYRNHEADHTALFNRVRLQLNPDISSPNLPTYQRLANYKKGTPDYQLEQLYYQFGRYLLIASSRPGNMPANLQGMWHNNLDGPWRVDYHNNINIQMNYWPACSANLSECTWPLIDFIRSLVKPGEQTAQAYFNARGWTASISANIFGFTAPLSSNMMSWNLNPTAGPWLATHIWEYYDYTRDKKFLKEIGYDLIKSSAQFAVDHLWHKPDGTYTAAPSTSPEHGPIDEGVTFAHAVVREILLDAIQASKELGIDSKERKQWEKILDKLVPYRIGRYGQLMEWSTDIDDPEDEHRHVNHLFGLHPGHTISPITTPKLAEAAKVVLEHRGDGATGWSMGWKLNQWARLQDGNHAYKLYGNLLKNGTLDNLWDTHAPFQIDGNFGGTAGITEMLLQSHMGFIQLLPALPDAWKNGSITGICAKGNFEISISWKEGQLDKATILSGSGTPCNVRYGDKTLSFSTVKGKKYEITLVGNLLKLEGHHHHHH | soluble
SLRSLLTRRTIAIEGCCHGELDAIYSSLARLEEMHKMKVDLLICCGDFQFLACPPKYRDLRDFPAYFRGEKEAPCLTVFVGGNHEAPTVLRELYYGGWVAPKIFYLGHAGVVNVGGVRIAGLSGIFKSQDYRKGYFERPPYTEDTMRSAYHVREFEIAKLNRELTGRVDIVVTHDWPEGIYDFGDKTELIRQKPFLEKDIQAHELGNPHSMELLKKLKPAFWFAAHLHTRFAAVYVHPGPEGKATRFLALDKVLPRREFLQILEVEPLLPAGYVQQLSPGISRRSPTLCYDEEWLAILRANQQVLPVSRFPQKSCLVTKATADDLATVKKNLASLGLR | soluble
MGSSHHHHHHGGTGENLYFQGGSGDLLHFISLVIDLRDYPGYATCIRATEYPGLALCEYNAVAGMRYTVPLGYAASAVYFYLYHRPRLSFADRSLTKLHHYFYPSAGYSTPLGIIGGVICGAAECVQGLTPAALEATAAREKAAAVMAAEQYSQRHRAVKERLKAEQSFASKALAWLQLCEDPVQAELARMGLGEDSIAWETLLVPQGYLWTQLHSVVHDPARYRGYEAPVATGAAVPTSADERLSQPSGGANTPCPSPSGVLSLSRAYFTKPQVDAVVSRIGTLRTSPEEDRWMRSAGRCGAYGVFGMLLTWNSGGALFRAQMGLGLGVVIAGLASATRLDEVFAHL | not soluble
MAQPSTTYKFELNLTDLDRGVYESVKQTIARHPSETEERMTVRLLAYAFWYNEQLAFGRGLSDVDEPALWEKSLDDRVLHWIEVGQPDADRLTWCSRRTERTSLLAYGSLRVWEGKVIPAIKNLKNVNIAAVPQDVLEVLAKDMPRVIKWDVMISEGTVFVTDDRGQHEVQLQWLTGERG | soluble
HDVIFHIRAKGKNQKLLLSAHPSYSRVHITAQAYENPSEPPMFCMLLRKHIEGGFIEKIEQAGLDRIMIFHIKSRNEIGDETVRKLYVEIMGRHSNIILTDAAENVIIDGLKHLSPSMNSYRTVLPGQDYKLPPAQDKISPLEASEDDILRHLSFQEGRLDKQIVDHFSGVSPLFAKEAVHRAGLANKVTLPKALLALFAEVKEHRFIPNITTVNGKEYFYLLELTHLKGEARRFDSLSELLDRFYFGKAERDRVKQQAQDLERFVVNERKKNANKIKKLEKTLEYSENAKEFQLYGELLTANLYMLKKGD | not soluble
MTNNAVLQLRAERLARATRPFLARGNRVRRCQRCLLPLKSCLCDTLTPSQAKSRFCLVMFDTEPMKPSNTGRLIADILPDTAAFQWSRTEPPQALLELVQHPDYQPIVVFPASYAGEAREVISTPPAGKPPLFIMLDGTWPEARKMFRKCPYLDHLPVISVDLSRLSAYRLREIHAEGQYCTAEVAIALLDLAGDTEAATSLGEHFTRFKTRYLAGKTQHPGNVTALEHHHHHH | not soluble
MGSDKIHHHHHHMMLRASYGTIRKVNGNSSLEMDTAYLMLGERCVYNCLYCAQSRSSTSPSHFLSRVTWKEVSEDLLGKLNDRFKRVCIQVVSYPSYGKDLRLIIPRFRIPVSVSVRAVSIEEVVEYFELGADRVGIAVDVPNKTLFEKIRGGKYERHLHILEKVSEMFPGRITTHVIVGLGESDKDIVDFTVWARERNIVVSLFAFTPIKGTAFENRERPSLERYRKIQLVTYLLEKNLIKPENIIFDSNGKIIDVEWNGEFPEEALRTRGCPHCTRPYYNESPRGPIYNVHWR | not soluble
MADSNSTVEQYRSLKRKMIEKKDLMRNNRTALRACILFNCLLGTSIRDAYNQFCRAVGSDVMEYREYEFWFYQFKRGDADFSDAISWNPNTIKLDELPIEVINTISSFSMPMERLTLRKVSKNLRTLIDSEPFCFQRIIVRIGHRTSYLQLDGYPGIEYIHCGADCNVLYGKRDKYVKNKNHVEYALTEAIQLMRNSNNHSKEFHVRAERSNDQELSMVLRKFFDSVEIELYAKKIVVSGFSFADTSSVLCHFKAGFLEEIQVLPGSGGPWTNVLVEMEQYKKAKVLKICTEFPVLLDIEDLLHFRRFEIAIKSDFTERMARKIRDVLTNSEHFEYAHIITQDLHHRTVIKFFNRNAENVFWNYGSMNYNNKKRLFHIEYNHRQFVIKKLNM | not soluble
MGSDKIHHHHHHMDTRKNVSGAERKIWSLIRDCSGKLEGVTETSVLEVLLIVSRVLGIRKEDLFLKDLGVSPTEEKRILELVEKRASGYPLHYILGEKEFMGLSFLVEEGVFVPRPETEELVELALELIRKYGIKTVADIGTGSGAIGVSVAKFSDAIVFATDVSSKAVEIARKNAERHGVSDRFFVRKGEFLEPFKEKFASIEMILSNPPYVKSSAHLPKDVLFEPPEALFGGEDGLDFYREFFGRYDTSGKIVLMEIGEDQVEELKKIVSDTVFLKDSAGKYRFLLLNRRSS | soluble
MSEQLVTPENVTTKDGKINLLDLNRQQMREFFKDLGEKPFRADQVMKWMYHYCCDNFDEMTDINKVLRGKLKEVAEIRAPEVVEEQRSSDGTIKWAIAVGDQRVETVYIPEDDRATLCVSSQVGCALECKFCSTAQQGFNRNLRVSEIIGQVWRAAKIVGAAKVTGQRPITNVVMMGMGEPLLNLNNVVPAMEIMLDDFGFGLSKRRVTLSTSGVVPALDKLGDMIDVALAISLHAPNDEIRDEIVPINKKYNIETFLAAVRRYLEKSNANQGRVTIEYVMLDHVNDGTEHAHQLAELLKDTPCKINLIPWNPFPGAPYGRSSNSRIDRFSKVLMSYGFTTIVRKTRGDDIDAACGQLAGDVIDRTKRTLRKRMQGEAIDIKAV | soluble
